These results are taken from PMC5216119, “An allosteric conduit facilitates dynamic multisite substrate recognition by the SCF^Cdc4 ubiquitin ligase” (Nature Communications, 2017).

For experiment [1], the target named is T1, R655Q Cdc4^WD40 (Saccharomyces cerevisiae, UniProt P07834, R655Q).
T1 construct: Cdc4^WD40 (residues 367-744) was expressed from pET-Sumo (Invitrogen); His-SUMO (pET-Sumo vector) (N, cleaved yes); made in house; host or cells: Escherichia coli (host printed only for the NMR samples)
The experiment is described as follows: Intrinsic Trp fluorescence binding, R655Q Cdc4^WD40. On the set-up: species or system yeast. Particulars: in vitro Trp fluorescence.

Experiment [2] addresses T2, R664Q Cdc4^WD40 (Saccharomyces cerevisiae, UniProt P07834, R664Q).
T2 construct: Cdc4^WD40 (residues 367-744) was expressed from pET-Sumo (Invitrogen); His-SUMO (pET-Sumo vector) (N, cleaved yes); made in house; host or cells: Escherichia coli (host printed only for the NMR samples)
The experiment is classed as binding, yeast. Particulars: in vitro Trp fluorescence. Here is the method: We assessed the contribution of the allosteric pocket to substrate interactions by mutation of positively charged Arg655 and Arg664 residues, both of which are required for SCF-I2 inhibition. We generated Arg655Gln and Arg664Gln substitution mutants to minimize disruptive steric effects on the allosteric pocket and WD40 domain.
The binding affinities of three different peptides (Sic1^20pS69, Sic1^20pS80 and Sic1^20pS69/S80) for wild-type and mutant (Arg664Gln) Cdc4^WD40 were measured by intrinsic Trp fluorescence-binding experiments. The measurements were carried out by using an ATF 105 spectrometer (AVIV Instruments, Lakewood, NJ) equipped with an automatic titrator. The binding of the peptide fragments were monitored by using intrinsic tryptophan fluorescence with an excitation wavelength of 298 nm and an emission wavelength of 366 nm. All measurements were performed in 50 mM Tris, 150 mM NaCl, 5 mM DTT, pH 7.5 at 20 °C. The concentration of Cdc4 was 0.5 μM for all measurements. […] Association constants were calculated using the formula Ka=1/Kd. Prism 4.0 software (GraphPad Software, San Diego, CA) was used for statistical analysis (non-paired Student t test), and P values <0.05 were considered significant. Each experiment was repeated at least three times.

Experiment [3] deals with T3, R655Q Cdc4^WD40 (yeast, UniProt P07834 367-744, R655Q).
T3 construct: Cdc4, yeast F-box protein, WD40 domain, residues 367-744, with Arg655Gln in the allosteric pocket; also called Arg655Gln Cdc4^WD40; source: E. coli, purified as the wild type (Ni-NTA, Ulp protease, Ni-NTA, Superdex 200)
T3 sequence (looked up): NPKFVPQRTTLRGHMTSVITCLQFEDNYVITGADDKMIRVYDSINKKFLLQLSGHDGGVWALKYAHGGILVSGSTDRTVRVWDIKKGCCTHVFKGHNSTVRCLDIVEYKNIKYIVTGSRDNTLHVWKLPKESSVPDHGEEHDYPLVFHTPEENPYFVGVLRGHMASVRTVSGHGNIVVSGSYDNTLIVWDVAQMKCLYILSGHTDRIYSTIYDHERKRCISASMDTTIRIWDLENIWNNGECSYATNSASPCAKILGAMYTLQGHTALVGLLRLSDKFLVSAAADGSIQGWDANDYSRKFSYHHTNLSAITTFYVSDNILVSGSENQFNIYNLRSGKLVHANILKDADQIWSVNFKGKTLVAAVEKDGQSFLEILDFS
The experiment is described as follows: other fluorescence titration; intrinsic Trp fluorescence (excitation 298 nm, emission 366 nm); 0.5 μM Cdc4, ligand titrated; 50 mM Tris, 150 mM NaCl, 5 mM DTT, pH 7.5, 20 °C; 1:1 stoichiometry assumed.

In experiment [4] the target is T4, R664Q Cdc4^WD40 (yeast, UniProt P07834 367-744, R664Q).
T4 construct: Cdc4, yeast F-box protein, WD40 domain, residues 367-744, with Arg664Gln in the allosteric pocket; also called Arg664Gln Cdc4^WD40; mutant (Arg664Gln) Cdc4^WD40; source: E. coli, purified as the wild type (Ni-NTA, Ulp protease, Ni-NTA, Superdex 200)
T4 sequence (looked up): T3 sequence (looked up) with Q289R, R298Q
Described as above.

In experiment [5] the target is Cdc4^WD40 (isolated WD40 domain of the yeast F-box protein Cdc4, residues 367-744), wild type (yeast) (UniProt P07834). The description is as above.
Experiment [6] addresses T5, Cdc4^WD40 (isolated WD40 domain of the yeast F-box protein Cdc4, residues 367-744), wild type (yeast, UniProt P07834 367-744).
T5 construct: Cdc4, yeast F-box protein, WD40 domain, residues 367-744; For the NMR experiments the protein was U-[15N,2H], Ile-delta1-[13CH3], Met-epsilon-[13CH3] labelled (IM-labelled); also called wt Cdc4^WD40; Cdc4 WD40 domain; source: E. coli BL21(DE3) codonPlus, purified (Ni-NTA, Ulp protease, Ni-NTA, Superdex 200)
T5 sequence (looked up): T3 sequence (looked up) with Q289R
The experiment is described as follows: NMR titration; 2D 13C-1H TROSY HMQC at 10 °C on 200 μM IM-labelled Cdc4^WD40 with increasing concentrations of unlabelled ligand; 100% D2O, 50 mM Na2HPO4 pH 8.0, 150 mM NaCl, 2 mM DTT. As to conditions: both partners purified.

The next experiment has as its target Cdc4. As to conditions: Sic1 phosphorylated on between 4 and 6 low-affinity CPD sites; read-out: Kd of high-affinity Sic1-Cdc4 interaction; cited from earlier work. An excerpt:
WD40 domains, and the related Kelch β-propeller domains, mediate protein interactions in many contexts and together form the largest domain family in the human genome. WD40 domain proteins are a predominant class of substrate receptor in the ubiquitin-proteasome system, found in F-box proteins and other subunits of the cullin-RING (CRL) ubiquitin ligases. The WD40 domain of the yeast F-box protein Cdc4 (Cdc4^WD40) recognizes substrates via phosphorylated motifs termed Cdc4 phosphodegrons (CPDs). One of the best characterized Cdc4 substrates is the cyclin dependent kinase inhibitor ...

Experiment [7] deals with T5, Cdc4^WD40 (isolated WD40 domain of the …). Description: ITC; 20 °C; cell 30 μM Cdc4^WD40, syringe 100 μM pSic1; 50 mM Na2HPO4 pH 7.2, 150 mM NaCl, 2 mM β-mercaptoethanol; single-site binding model. Particulars: both partners purified.
Experiment [8] shares this target. The experiment is described as follows: other fluorescence titration; intrinsic Trp fluorescence (excitation 298 nm, emission 366 nm); 0.5 μM Cdc4, ligand titrated; 50 mM Tris, 150 mM NaCl, 5 mM DTT, pH 7.5, 20 °C; 1:1 stoichiometry assumed. As to conditions: both partners purified.
The target in experiment [9] is T4, R664Q Cdc4^WD40. Described as above. As to conditions: both partners purified.
The target in a further experiment is Cdc4-Skp1. Particulars: read-out: Kd for pSic1-Cdc4-Skp1 by intrinsic tryptophan (Trp) fluorescence; cited from earlier work.

Numbering of substitutions follows the chain as printed. Where two headings read alike, the source gives them in different places. Square brackets hold non-standard residues; d marks the D form. Ends that are not written are not given here. Peptide text beside a SMILES is read from it. pT = C[C@@H](OP(=O)(O)O)[C@H](N)C(=O)O; pS = N[C@@H](COP(=O)(O)O)C(=O)O

T2 sequence (P07834 367-744 R664Q): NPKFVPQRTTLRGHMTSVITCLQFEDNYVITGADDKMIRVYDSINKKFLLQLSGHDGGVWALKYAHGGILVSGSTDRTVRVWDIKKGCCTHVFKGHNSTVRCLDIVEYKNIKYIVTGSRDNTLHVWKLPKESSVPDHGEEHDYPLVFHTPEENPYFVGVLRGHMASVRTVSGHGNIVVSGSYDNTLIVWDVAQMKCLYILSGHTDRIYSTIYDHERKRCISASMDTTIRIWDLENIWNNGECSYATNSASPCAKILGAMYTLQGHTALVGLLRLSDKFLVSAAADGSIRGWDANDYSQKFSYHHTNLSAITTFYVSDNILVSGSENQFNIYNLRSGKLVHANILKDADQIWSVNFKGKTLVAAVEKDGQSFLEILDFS

Consider `CC(=O)NCC(=O)N[C@@H](CC(C)C)C(=O)N[C@@H](CC(C)C)C(=O)N[C@H](C(=O)N1CCC[C@H]1C(=O)N1CCC[C@H]1C(=O)N[C@@H](CCC(N)=O)C(=O)N[C@@H](CO)C(=O)NCC(N)=O)[C@@H](C)OP(=O)(O)O` [CycE] (Ac-GLL[pT]PPQSG-NH2; N-terminus and C-terminus assumed), for which the “change of affinity for Arg655Gln Cdc4^WD40 versus wild-type” value on R655Q Cdc4^WD40 [1] was “did not significantly reduce”. Further, the “change of affinity for Arg664Gln Cdc4^WD40 versus wild-type” value at R664Q Cdc4^WD40 [2] is “did not significantly reduce”.

One may read the Kd as the equilibrium constant for the complex coming apart. As for “CycE phosphopeptide (singly phosphorylated high-affinity CPD peptide derived from cyclin E)”, the Kd turned out to be 2.9 µM with R655Q Cdc4^WD40 [3], 1.47 µM in the experiment with R664Q Cdc4^WD40 [4] and 2.21 µM in experiment [5].

B1: Ash1^18pT286/pT290/pS294 triphosphopeptide (unlabelled) (peptide)
peptide: AWSI[pT]PPV[pT]PPM[pS]PPTNR
notes: Ash1 transcriptional repressor, 18-residue peptide printed as AWSIpTPPVpTPPMpSPPTNR; the text says derived from Ash1 residues 283-299; the unlabelled form was used for NMR; also called triply phosphorylated Ash1 peptide; the peptide phosphorylated on all three CPDs
Consider B1, for which the binding result in [6] is “binds”.

B2: Sic1: cyclin dependent kinase inhibitor, Cdc4 substrate; here phosphorylated on 4 to 6 CPD sites (protein, UniProt P38634 1-284, looked up)
Protein SIC1: MTPSTPPRSRGTRYLAQPSGNTSSSALMQGQKTPQKPSQNLVPVTPSTTKSFKNAPLLAPPNSNMGMTSPFNGLTSPQRSPFPKSSVKRTLFQFESHDNGTVREEQEPLGRVNRILFPTQQNVDIDAAEEEEEGEVLLPPSRPTSARQLHLSLERDEFDQTHRKKIIKDVPGTPSDKVITFELAKNWNNNSPKNDARSQESEDEEDIIINPVRVGKNPFASDELVTQEIRNERKRAMLRENPDIEDVITYVNKKGEVVEKRRLTDEEKRRFKPKALFQSRDQEH
modifications: phosphorylated
notes: here phosphorylated on 4 to 6 CPD sites
As to B2, the Kd at Cdc4 was approximately 1 µM.

B3: pSic1 (N-terminal targeting region of Sic1, residues 1-90, phosphorylated to completion by Cln2-Cdc28-Cks1 kinase) (domain or fragment, yeast, UniProt P38634 1-90, looked up)
chain: MTPSTPPRSRGTRYLAQPSGNTSSSALMQGQKTPQKPSQNLVPVTPSTTKSFKNAPLLAPPNSNMGMTSPFNGLTSPQRSPFPKSSVKRT
modifications: phosphorylated to completion by Cln2-Cdc28-Cks1 kinase; contains 7 of the 9 Sic1 CPD sites (the residues are not listed)
notes: also called pSic1 (1-90); pSic1^1-90
Turning to B3, the equilibrium dissociation constant (Kd) in experiment [7] was 0.8 ± 0.12 µM; in experiment [8] it was 1.3 µM; with R664Q Cdc4^WD40 [9], 4.96 µM; in the experiment with R655Q Cdc4^WD40 [3] (both partners purified), 4.16 µM; on Cdc4-Skp1, 0.6 µM.
